Results on twelve molecules are retold here after US20210253725A1 (BIONTECH, published 2021).

In test [1] the target is T1, CD134 expressed on the cell surface of HT1080_OX40 cells (human, UniProt P43489 29-277).
T1 construct: whole, on cells; species not restated for the HT1080 transfectant
T1 sequence (looked up): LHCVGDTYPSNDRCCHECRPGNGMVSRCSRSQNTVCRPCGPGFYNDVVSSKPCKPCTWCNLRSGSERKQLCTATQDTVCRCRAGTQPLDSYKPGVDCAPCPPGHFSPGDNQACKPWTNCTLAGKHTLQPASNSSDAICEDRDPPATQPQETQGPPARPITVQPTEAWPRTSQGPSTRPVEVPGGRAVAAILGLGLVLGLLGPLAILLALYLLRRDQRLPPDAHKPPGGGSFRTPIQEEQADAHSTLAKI
Nature of the test: HT1080_OX40 cells, imaging.

Test [2] deals with T1, CD134 expressed on the cell surface of …. Nature of the test: cell-based or functional assay.
Test [3] concerns the target T2, CD134 protein (His-tagged, Sino Biological Inc. 10481-H08H) (human, UniProt P43489 29-216).
T2 construct: bought protein coated on ELISA plates; also called OX40; TNFRSF4; not shown: His tag
T2 sequence (looked up): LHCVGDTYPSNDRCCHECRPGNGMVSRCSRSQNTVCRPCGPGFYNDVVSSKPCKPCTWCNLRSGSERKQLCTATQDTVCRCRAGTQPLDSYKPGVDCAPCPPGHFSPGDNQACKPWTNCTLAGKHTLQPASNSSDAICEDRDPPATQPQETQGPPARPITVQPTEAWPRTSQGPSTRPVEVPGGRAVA
Put plainly: ELISA, coated His-tagged CD134.

Test [4] has as its target T3, CD27 expressed on the cell surface (HT1080_CD27 cells) (human, UniProt P26842 20-260).
T3 sequence (looked up): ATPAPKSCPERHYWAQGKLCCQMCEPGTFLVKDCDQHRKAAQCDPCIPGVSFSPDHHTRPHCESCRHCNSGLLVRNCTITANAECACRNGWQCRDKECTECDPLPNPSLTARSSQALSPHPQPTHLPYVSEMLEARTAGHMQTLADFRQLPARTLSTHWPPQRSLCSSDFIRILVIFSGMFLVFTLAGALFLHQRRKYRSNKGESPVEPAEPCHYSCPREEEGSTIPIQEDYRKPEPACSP
Put plainly: cell-based or functional assay.

The target in test [5] is T3, CD27 expressed on the cell surface …. Put plainly: cellular binding assay, HT1080_CD27 cells.
The target in test [6] is T4, CD27 protein (His-tagged, Sino Biological Inc. 10039-H08B1) (human, UniProt P26842 20-192).
T4 construct: bought; coated onto ELISA plates; also called human CD27; recombinant protein; not shown: His tag
T4 sequence (looked up): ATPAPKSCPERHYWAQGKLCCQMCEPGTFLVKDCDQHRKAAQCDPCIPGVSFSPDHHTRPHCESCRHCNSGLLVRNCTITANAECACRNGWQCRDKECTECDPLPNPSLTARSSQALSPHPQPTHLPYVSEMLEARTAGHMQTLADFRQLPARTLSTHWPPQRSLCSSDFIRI
Put plainly: ELISA on coated His-tagged CD27.
Also: test concentration or dose not given here.

B1: P018.S.12.A.H05 (antibody, V domains shown)
VH: QSLEESGGDLVKPGASLTLTCTASGFSFDIDYYMCWVRQAPGKGLEWIACIYAGSSGSTYYASWAKGRFTISKTSSTTVTLQMPSLTAADTATYFCARHYAGYAGDAYATDYYFNLWGRGTLVTVSS
VL: DIVMTQTPSSVSATVGDTVTINCQASQSVSNFLAWYQQKPGQPPKPLIYGASNLESGVPSRFRGSGSGTEFTLTISGMKAEDAATYYCQSGYYSATFGAGTKVEIK
notes: V regions on human Ig constant parts; also called AB134_91
In the case of B1, the “Cellular binding assay [RFU]” value in test [1] came out at 527 RFU. Also, in test [2], the “Functional assay Cross-linked by F(ab′)2 fragment IL-8” value (from here on “Functional assay Cross-linked”) stood at 2.19 abs. corr and the “Functional assay IL-8” value was 0.348 abs. corr. Also, the “ELISA [abs. corr.]” value in test [3] is 2.37 abs. corr.

B2: P018.S.12.A.C02 (antibody, V domains shown)
VH: QEQLVESGGGLVQPEGSLTLTCTASGFSFSNNAMCWVRQAPGKGLEWIACIYDGSSGSTYYATWAKGRFTISKTSSTTVTLQMTSLTAADTATYFCARAYGGYTVYDYAFNLWGPGTLVTVSS
VL: DVVMTQTPASVSEPVGGTVTIKCQASQSIGSDLAWYQQKPGQPPKLLIYYTTNLETGVSSRFKGSRSGTEYALTISDLESADAATYYCQYGVRSTYSFGGGTEVVVK
notes: V regions on human Ig constant parts; also called AB134_62
B2: in test [1], the “Cellular binding assay [RFU]” value stood at 571 RFU. In test [2], the “Functional assay Cross-linked” value was 2.14 abs. corr and the “Functional assay IL-8” value was 0.936 abs. corr. Also, the “ELISA [abs. corr.]” value in test [3] was 2.05 abs. corr.

B3: P018.S.04.A.B04 (antibody, V domains shown)
VH: QSLEESGGRLVTPGTPLTLTCTASGIDLNNYAMSWVRQAPGKGLEWIGIISGAGYTYYTTWAKGRFTISKTSTTVDLKITSPTTEDTATYFCARIYDSYGYAYVPYYDMDLWGPGTLVTVSS
VL: AAVLTQTPSPVSTAVGGTVTINCQSSQSVFMNNYLSWYQQKPGQPPKLLIYDASTLASRVPDRFSGSGSGTQFTLTISGVQSDDAAAYYCLGGYDDDSATTFGGGTEVVVE
notes: V regions on human Ig constant parts; also called AB134_6
For the molecule B3, the “Cellular binding assay [RFU]” value in test [1] was determined as 331 RFU. Moreover, in test [2], the “Functional assay Cross-linked” value was determined as 2.11 abs. corr and the “Functional assay IL-8” value was found to be 1.99 abs. corr. Moreover, in test [3], the “ELISA [abs. corr.]” value is 3.21 abs. corr.

B4: P018.S.11.A.G02 (antibody, V domains shown)
VH: QSVEESGGRLVTPGTPLTLTCTVSGFSLSGYDMSWVRQAPGKGLEWIGYIYGGNTYYANWAKGRFTISKTSTTVDLKMTSPTTEDTATYFCTRVGAGYSGVWAYFNLWGPGTLVTVSS
VL: AQVLTQTPSSVSAAVGGTVTINCQSSQSVDSDNYLAWYQQKPGQPPKLLIYDTSKLASGVPSRFTGSGSGTQFTLTISGVQSDDAATYYCQGTYYNAGWYFAFGGGTEVVVK
notes: V regions on human Ig constant parts; also called AB134_42
Take B4: in test [1], the “Cellular binding assay [RFU]” value is 357 RFU. In test [2], the “Functional assay Cross-linked” value was determined as 2.06 abs. corr and the “Functional assay IL-8” value was 0.27 abs. corr. Further, the “ELISA [abs. corr.]” value in test [3] turned out to be 1.07 abs. corr.

B5: P018.S.11.A.D04 (antibody, V domains shown)
VH: QSVEESGGRLVTPGTPLTLTCTVSGFSLNSYDMSWVRQAPGKGLEWIGFISASGSIYFASWAKGRFTISKTSTTVDLKITSPTTEDTATYFCASDSYGWAYVYYFNLWGPGTLVTVSS
VL: AVVLTQTPASVSPAVGGTVTINCRASEDIGSYLGWYQQKPGQPPKLLMHDASDLASGVPSRFSGSGSGTEFTLTISGVQSDDAATYYCQSAWYSSNTDKMAFGGGTEVVVK
notes: V regions on human Ig constant parts; also called AB134_31
For the molecule B5, the “Cellular binding assay [RFU]” value in test [1] turned out to be 530 RFU. Moreover, in test [2], the “Functional assay Cross-linked” value turned out to be 2.04 abs. corr and the “Functional assay IL-8” value was 0.38 abs. corr. Also, in test [3], the “ELISA [abs. corr.]” value worked out at 2.07 abs. corr.

B6: P018.S.12.A.G04 (antibody, V domains shown)
VH: QSVEESGGRLVTPGTPLTLTCTVSGFSLNSYDMSWVRQAPGKGLEWIGFISAIDNTYYASWAKGRFTISKTSTTVDLKITSPTTEDTATYFCASDSYGWAYVYYFNLWGPGTLVTVSS
VL: AVVLTQTPASVSATVGGTVTINCRASEDIGSYLGWYQQKPGQPPKLLIHDASDLASGVPSRFSGSGSGTEFTLTISGVQSDDAATYYCQSAWYSSDSDKMAFGGGTEVVVK
notes: V regions on human Ig constant parts; also called AB134_86
On to B6, for which, in test [1], the “Cellular binding assay [RFU]” value worked out at 534 RFU. In test [2], the “Functional assay Cross-linked” value turned out to be 1.99 abs. corr and the “Functional assay IL-8” value was determined as 0.407 abs. corr. Moreover, the “ELISA [abs. corr.]” value in test [3] was determined as 2.08 abs. corr.

B7: P018.S.04.A.E04 (antibody, V domains shown)
VH: QSVEESGGRLVTPGTPLTLTCTVSGFSLSTYAMNWIRQAPGKGLEWIGTITTGGSTFFASWAKGRFTISKTSTTVDLKITSPTTEDTATYFCARGGDTGYGFSYFDLWGQGTLVTVSS
VL: AVVLTQTPASVSEPVGGTVTIKCQASENIYSSLAWYQQKPGQPPKLLIYDASTLASGVPSRFKGSGSGTEYTLTISGVQSDDAATYYCQQGYSTSNLVNPFGGGTELVVN
notes: V regions on human Ig constant parts; also called AB27_75
For the molecule B7, in test [4], the “IL-8, cross-linked by F(ab')2 fragment [abs. corr.]” value worked out at 1.34 abs. corr and the “IL-8 [abs. corr.]” value stood at 0.641 abs. corr. In test [5], the “Cellular binding assay [RFU]” value worked out at 283 RFU. Besides, the “ELISA [abs. corr.]” value in test [6] turned out to be 3.38 abs. corr.

B8: P018.S.11.A.F05 (antibody, V domains shown)
VH: QSLEESGGRLVTPGTPLTLTCTVSGFSLSRYHMSWVRQAPGKGLEYIGYIHTDDTNWYASWAKGRFTISKTSTTVDLKITSPTTEDTATYFCARVSSVGGYYFDLWGQGTLVTVSS
VL: DVVMTQTPASVSEPVGGTVTIKCQASEDIYNLLAWYQQKPGQPPKLLIYAASTLASGVPSRFKGSGSGTQFTLTISDLESADAATYYCQNNYLISSYGVGFGGGTEVVVK
notes: V regions on human Ig constant parts; also called AB134_41
Turning to B8, the “Cellular binding assay [RFU]” value in test [1] was 396 RFU. In test [2], the “Functional assay Cross-linked” value is 2.15 abs. corr and the “Functional assay IL-8” value was 0.33 abs. corr. For the same molecule, in test [3], the “ELISA [abs. corr.]” value is 1.67 abs. corr.

B9: P018.S.12.A.A01 (antibody, V domains shown)
VH: QSVEESGGRLVTPGTPLTLTCTVSGFSLSSYAMIWVRQAPGKGLEYIGYISYDGSTYYASWVKGRFTISKTSTTVDLKMTSLTTEDTATYFCARARIDDGYGNLWGQGTLVTVSS
VL: DVVMTQTPASVSEPVGGTVTIKCQASESISNYLAWYQQKPGQPPKLLIYAASYLASGVPSRFRGSGSGTEFTLTISDLESADAATYYCQCTYVASTYVGTFGGGTEVVVK
notes: V regions on human Ig constant parts; also called AB134_50
For B9, the “Cellular binding assay [RFU]” value in test [1] is 600 RFU. Further, in test [2], the “Functional assay Cross-linked” value turned out to be 2.14 abs. corr and the “Functional assay IL-8” value was 0.071 abs. corr. In addition, the “ELISA [abs. corr.]” value in test [3] was determined as 2.41 abs. corr.

B10: P018.S.02.A.F01 (antibody, V domains shown)
VH: QSVEESGGRLVTPGTPLTLTCTVSGFSLSSYAMSWVRQAPGKGLEWIGIISSSGVTYYASWAKGRFTISKTSTTVDLRITGPTTEDTATYFCARDPGYSTGWDYFFRLWGQGTLVTVSS
VL: AIKMTQTPASVSAAVGGTVSINCQASEDIESYLAWYQQKPGQPPKLLIYDASDLPSGVPSRFKGSGSGKQFTLTISGVQSDDAATYYCQHGAYTSSSDFFYAFGGGTEVVVK
notes: V regions on human Ig constant parts; also called AB134_1
Consider B10, for which the “Cellular binding assay [RFU]” value in test [1] was found to be 498 RFU. In test [2], the “Functional assay Cross-linked” value stood at 2.34 abs. corr and the “Functional assay IL-8” value came out at 0.115 abs. corr. Besides, the “ELISA [abs. corr.]” value in test [3] came out at 2.69 abs. corr.

B11: P018.S.11.A.F04 (antibody, V domains shown)
VH: QSVEESGGRLVTPGTPLTLTCTVSGFSLSRYTMGWVRQAPGKGLEYIGIIYGDDNTYYASWAKGRLTISKTSSTTVDLKITSPTTEDTATYFCASCAPIYYNTFSFNLWGQGTLVTVSA
VL: AYDMTQTPASVEVAVGGTVTIKCQASQTIGGSLSWYQQKPGQPPKLLIYAAATLASGVPSRFKGSGSGTQFTLTISGVESDDAATYYCQQHYTGDNVNNPFGGGTEVVVK
notes: V regions on human Ig constant parts; also called AB134_40
With B11, the “Cellular binding assay [RFU]” value in test [1] worked out at 486 RFU. Moreover, in test [2], the “Functional assay Cross-linked” value amounted to 2.11 abs. corr and the “Functional assay IL-8” value was found to be 0.568 abs. corr. Also, the “ELISA [abs. corr.]” value in test [3] stood at 2.25 abs. corr.

B12: P018.S.12.A.C03 (antibody, V domains shown)
VH: QEQLKESGGDLVTPGTPLTLTCTVSGFSLSSYAMAWVRQAPGKGLEYIGFIDTDGSAYYASWAKGRFTISRTSTTVDLKITSPTTEDTATYFCAGDSYGYAGFVYFNLWGPGTLVTVSS
VL: DVVMTQTPASVSEPVGGTVTIKCQASQNIYSSLAWYQQKPGQPPKLLIYDASDLASGVPSRFKGSGSGTQFTLTISDLESDDAATYYCQCSYYGVDYVGGFGGGTEVVVK
notes: V regions on human Ig constant parts; also called AB134_63
For the molecule B12, the “Cellular binding assay [RFU]” value in test [1] is 483 RFU. Also, in test [2], the “Functional assay Cross-linked” value came to 2.11 abs. corr and the “Functional assay IL-8” value was determined as 0.238 abs. corr. Also, the “ELISA [abs. corr.]” value in test [3] turned out to be 1.96 abs. corr.
